In publication PMC5301203:

Legend:
[1] = target: dockerin D61 (group 6) of R. flavefaciens FD-1 (Ruminococcus flavefaciens FD-1); assay: ITC; 10-uL aliquots of 80-180 uM cohesin injected into 20-30 uM thioredoxin-fused dockerin; 308.16 K; 50 mM Na-HEPES pH 7.5, 2 mM CaCl2, 0.5 mM TCEP; single-site model
[2] = target: dockerin D37 (group 3) of R. flavefaciens FD-1 (Ruminococcus flavefaciens FD-1); assay: as above
[3] = target: group-6 dockerin D61, thioredoxin-fused (pETG-20A) (Ruminococcus flavefaciens FD-1); assay: ITC; thioredoxin-fused dockerin (20-30 uM) in the cell, cohesin (80-180 uM) injected; 308.16 K; 50 mM Na-HEPES pH 7.5, 2 mM CaCl2, 0.5 mM TCEP; single-site model
[4] = target: group-3 dockerin D37, thioredoxin-fused (pETG-20A) (Ruminococcus flavefaciens FD-1); assay: as above
[5] = target: ScaH dockerin D49, thioredoxin-fused (pETG-20A) (Ruminococcus flavefaciens FD-1); assay: as above
ScaH dockerin D49, thioredoxin-fused (pETG-20A) (Ruminococcus flavefaciens FD-1), sequence (main, as listed by the source): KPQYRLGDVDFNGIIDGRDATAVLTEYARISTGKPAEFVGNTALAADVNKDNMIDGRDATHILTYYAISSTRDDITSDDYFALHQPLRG

[6] = target: group-2 dockerin D35 (ZP_06143271), thioredoxin-fused (pETG-20A) (Ruminococcus flavefaciens FD-1); assay: as above
[7] = target: ScaE cohesin of R. flavefaciens FD-1; assay: ELISA; conditions: read off a plot

“ScaC cohesin of R. flavefaciens FD-1 (domain or fragment)” showed a Ka [1] of 1e+08 M⁻¹, a stoichiometry N [1] of 1 and a Ka [2] of 1e+08 M⁻¹. It also gave a stoichiometry N [2] of 1.
For “ScaC cohesin, His-tagged (pET21a) (domain or fragment)”, the Ka [3] was 3.54e+08 M⁻¹ and the Ka [4] was 2.69e+08 M⁻¹.
With “ScaE cohesin, His-tagged (pET21a) (domain or fragment)” the Ka [5] was 1.56e+06 M⁻¹ and the Ka [6] was 6.17e+07 M⁻¹.
For “dockerin of ScaH, ZP_06142361 (Coh-Doc) G11A; R12A”, the other: pEC50 ([7]; parent: est. 10.2) was 10.
Substance “dockerin of ScaH, ZP_06142361 (Coh-Doc) G11A; R12A; G50A; R51A” has an other: pEC50 ([7]; parent: est. 10.2) of 9.1.
“dockerin of ScaH, ZP_06142361 (Coh-Doc) G50A; R51A” was tested, and the other: pEC50 ([7]; parent: est. 10.2) was 9.9.
“dockerin of the peptidase ZP_06142181 (Peptidase-UNK-Doc) G11A; R12A” gave an other: pEC50 ([7]; parent: est. 8.6) of 8.6.
“dockerin of the peptidase ZP_06142181 (Peptidase-UNK-Doc) G11A; R12A; G50A; R51A” was tested, and the other: pEC50 ([7]; parent: est. 8.6) was 7.6.
In the case of “dockerin of the peptidase ZP_06142181 (Peptidase-UNK-Doc) G50A; R51A”, the other: pEC50 ([7]; parent: est. 8.6) is reported as 8.2.
